Measured values reported in IntAct's records for PubMed 28683311.

Tests used:
[1] = target: limd1_human LIMD1 (UniProt Q9UGP4)
[2] = target: limd1_human LIMD1 (UniProt Q9UGP4); remark: listed apart in the source
[3] = target: limd1_human LIMD1 (UniProt Q9UGP4); remark: listed apart in the source
[4] = target: tnr6a_human TNRC6A (UniProt Q8NDV7)
tnr6a_human TNRC6A, sequence (Q8NDV7 whole entry): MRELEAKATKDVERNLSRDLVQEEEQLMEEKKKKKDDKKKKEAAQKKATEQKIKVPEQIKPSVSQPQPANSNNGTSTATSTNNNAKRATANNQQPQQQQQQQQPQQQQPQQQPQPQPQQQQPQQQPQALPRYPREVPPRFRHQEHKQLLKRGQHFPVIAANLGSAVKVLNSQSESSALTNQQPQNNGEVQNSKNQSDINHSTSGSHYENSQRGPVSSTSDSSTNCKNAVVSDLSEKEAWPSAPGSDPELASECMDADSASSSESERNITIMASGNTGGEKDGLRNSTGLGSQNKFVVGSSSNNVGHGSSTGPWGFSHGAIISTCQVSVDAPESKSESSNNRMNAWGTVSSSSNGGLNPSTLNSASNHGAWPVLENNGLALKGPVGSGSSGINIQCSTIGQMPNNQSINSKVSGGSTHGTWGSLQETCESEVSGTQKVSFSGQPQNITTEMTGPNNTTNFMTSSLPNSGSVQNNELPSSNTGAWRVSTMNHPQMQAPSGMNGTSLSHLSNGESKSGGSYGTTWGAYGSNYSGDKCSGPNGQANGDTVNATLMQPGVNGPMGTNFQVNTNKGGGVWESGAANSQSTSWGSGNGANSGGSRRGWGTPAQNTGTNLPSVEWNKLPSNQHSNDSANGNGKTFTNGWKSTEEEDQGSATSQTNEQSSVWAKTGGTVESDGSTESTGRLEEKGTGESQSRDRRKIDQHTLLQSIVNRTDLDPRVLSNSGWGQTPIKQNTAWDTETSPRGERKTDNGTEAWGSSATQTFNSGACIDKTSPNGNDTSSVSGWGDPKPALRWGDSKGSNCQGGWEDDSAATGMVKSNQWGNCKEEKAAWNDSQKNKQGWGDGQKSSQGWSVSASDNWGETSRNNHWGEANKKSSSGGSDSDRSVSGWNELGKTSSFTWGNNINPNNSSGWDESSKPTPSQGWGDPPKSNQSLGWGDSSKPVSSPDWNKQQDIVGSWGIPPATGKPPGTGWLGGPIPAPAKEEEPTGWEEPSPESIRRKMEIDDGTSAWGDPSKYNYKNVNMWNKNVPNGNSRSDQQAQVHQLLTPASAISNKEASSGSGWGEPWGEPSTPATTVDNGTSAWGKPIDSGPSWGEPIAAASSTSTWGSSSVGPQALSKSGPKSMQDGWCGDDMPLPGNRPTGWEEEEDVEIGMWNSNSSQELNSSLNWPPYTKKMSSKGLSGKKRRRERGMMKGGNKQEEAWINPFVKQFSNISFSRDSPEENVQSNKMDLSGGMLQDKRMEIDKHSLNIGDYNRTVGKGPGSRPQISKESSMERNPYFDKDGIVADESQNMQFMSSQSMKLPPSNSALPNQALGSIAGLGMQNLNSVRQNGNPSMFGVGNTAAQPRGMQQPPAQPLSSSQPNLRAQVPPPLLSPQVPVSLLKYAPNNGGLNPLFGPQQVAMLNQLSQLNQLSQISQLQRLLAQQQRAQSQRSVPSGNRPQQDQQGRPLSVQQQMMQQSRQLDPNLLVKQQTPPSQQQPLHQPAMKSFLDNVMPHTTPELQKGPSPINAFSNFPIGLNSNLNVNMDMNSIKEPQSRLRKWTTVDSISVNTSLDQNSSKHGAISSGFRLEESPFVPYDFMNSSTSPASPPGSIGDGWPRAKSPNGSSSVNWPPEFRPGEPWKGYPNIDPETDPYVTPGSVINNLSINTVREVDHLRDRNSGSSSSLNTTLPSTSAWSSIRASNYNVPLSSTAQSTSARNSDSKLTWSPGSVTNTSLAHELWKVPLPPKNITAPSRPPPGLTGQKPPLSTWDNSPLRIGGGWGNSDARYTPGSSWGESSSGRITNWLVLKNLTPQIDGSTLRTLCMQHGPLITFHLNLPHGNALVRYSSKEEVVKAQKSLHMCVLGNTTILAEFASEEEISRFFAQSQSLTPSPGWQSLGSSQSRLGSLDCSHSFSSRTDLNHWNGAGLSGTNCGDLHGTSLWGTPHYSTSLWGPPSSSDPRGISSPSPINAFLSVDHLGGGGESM

limd1_human LIMD1, sequence (Q9UGP4 whole entry): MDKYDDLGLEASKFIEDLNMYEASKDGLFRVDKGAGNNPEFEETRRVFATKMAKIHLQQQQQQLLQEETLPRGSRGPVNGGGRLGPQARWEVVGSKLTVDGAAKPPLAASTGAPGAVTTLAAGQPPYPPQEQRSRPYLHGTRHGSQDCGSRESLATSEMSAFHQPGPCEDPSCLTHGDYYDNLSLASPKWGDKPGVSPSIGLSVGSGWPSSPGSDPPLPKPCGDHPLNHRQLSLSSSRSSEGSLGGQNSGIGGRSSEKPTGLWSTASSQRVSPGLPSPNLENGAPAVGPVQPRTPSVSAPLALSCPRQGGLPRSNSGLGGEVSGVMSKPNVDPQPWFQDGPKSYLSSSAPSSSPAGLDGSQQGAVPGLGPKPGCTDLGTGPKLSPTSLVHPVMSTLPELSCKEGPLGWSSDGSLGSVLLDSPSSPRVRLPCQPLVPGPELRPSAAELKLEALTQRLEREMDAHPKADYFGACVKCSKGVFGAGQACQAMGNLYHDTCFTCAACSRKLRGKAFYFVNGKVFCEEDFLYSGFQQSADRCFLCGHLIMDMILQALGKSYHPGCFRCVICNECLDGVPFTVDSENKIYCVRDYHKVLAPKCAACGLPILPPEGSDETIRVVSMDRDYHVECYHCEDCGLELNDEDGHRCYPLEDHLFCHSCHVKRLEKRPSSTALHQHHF

| effect of a mutation on the interaction [1] | effect of a mutation on the interaction [2] | effect of a mutation on the interaction [3] | effect of a mutation on the interaction [4] | Substance |
| --- | --- | --- | --- | --- |
| with no effect |  |  |  | Protein argonaute-4 (Homo sapiens) (from UniProt Q9HCK5) S377E |
|  | increasing interaction strength | with no effect |  | Protein argonaute-2 (Homo sapiens), Q9UKV8 S387E |
|  | decreasing interaction strength |  | with no effect | Protein argonaute-2 (Homo sapiens), Q9UKV8 S387A |
| decreasing interaction strength |  |  |  | Protein argonaute-4 (Homo sapiens) (from UniProt Q9HCK5) S377A |
